Data on two molecules can be found in paper PMC11094138 (2024).

For orientation: Kd means the concentration at which binding is half-saturated.

This experiment concerns the target WDR5^22–334 (human, UniProt P61964 22-334). The experiment is described as follows: ITC.

In turn, GSRRAEVHLRK [MLL1^3762–3772_A3764R] had a Kd of 2000 nM. Molecule GSARAEVHLRK [MLL1 WIN motif MLL1^3762–3772] registered an equilibrium dissociation constant (Kd) of 1800 nM.
